{
  "source": "patent US20160184446A1",
  "about": "“METHOD OF INHIBITING BODY CAVITY FLUID ACCUMULATION” (Toray Industries, Inc., priority 2012, published 2016)",
  "tested_on": "gastric cancer peritoneal metastasis mouse models (GCIY-EGFP cells)",
  "assay": "Ascites accumulation in gastric cancer peritoneal metastasis mouse models, systemic (subcutaneous) administration",
  "type": "in vivo",
  "settings": "subcutaneous (systemic), 5,000 U/mouse/dose, twice a week for 4 weeks; ascites collected 2 weeks after final administration; vs PBS control",
  "procedure": "Gastric cancer peritoneal metastasis mouse models were produced by transplanting human gastric cancer cells, GCIY-EGFP cells, intraperitoneally into male KSN nude mice in the same manner as in Example 2.\nAdministration was initiated on the day after transplantation and performed twice a week for 4 weeks. Phosphate buffer (PBS) was administered to the control group in the same manner. Ascites was collected from the gastric cancer peritoneal metastasis mouse models under anesthesia 2 weeks after the final administration and the liquid volume was measured.\nThe vertical axis represents the amount of ascites (median; mL).",
  "data": [
    {"molecule": "PEG-mIFN-β: one PEG molecule with a molecular weight of 42,000 covalently bound to recombinant mouse interferon-β (conjugate, UniProt P01575 22-182, looked up, 42 kDa PEG) Interferon beta: INYKQLQLQERTNIRKCQELLEQLNGKINLTYRADFKIPMEMTEKMQKSYTAFAIQEMLQNVFLVFRNNFSSTGWNETIVVRLLDELHQQTVFLKTVLEEKQEERLTWEMSSTALHLKSYYWRVQRYLKLMKYNSYAWMVVRAEIFRNFLIIRRLTRNFQN", "values": [
      {"measurement": "accumulation of ascites (amount of ascites)", "value": "remarkably inhibited"}
    ]}
  ]
}
